# According to the supplement of paper PMC10567573:
# ± gives the standard deviation.
# Experiment: protein stability index of a GFP-peptide fusion (GPS, HEK-293T) (PSI 1-6); higher = more stable
# [1] = treatment: DMSO, c terminus: a fixed tail appended
# [2] = treatment: MLN4924 1 uM, 8 h, c terminus: a fixed tail appended
# 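Also: 24-mer peptide tiles fused after GFP, lentivirally expressed, FACS-sorted into six equal bins by GFP/DsRed ratio, decoded by Illumina sequencing, PSI is the read-weighted mean bin number.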
Sequence,protein stability index [1],protein stability index [2],"protein stability index (treatment: DMSO, c terminus: native)","protein stability index (treatment: MLN4924 1 uM, 8 h, c terminus: native)"
LALCPANHAPLREQGAIPRLVQLL [CTNNB1],2.39 ± 0.21,2.59 ± 0.21,,
GDVCYADVYRDGTGVVEFVRKEDM [SRSF1],4.22 ± 0.26,4.37 ± 0.042,,
CAHCRAHLANHDDLISKSFQGSQG [YPEL3],2.45 ± 0.34,2.74 ± 0.24,,
PVSDTPDEGDEPMPIPEDLSTTSG [IKZF1],5.75 ± 0.25,5.66 ± 0.3,,
PAAPFDKKCGRENWTVAFAPDGSY [WSB1],2.63 ± 0.33,2.86 ± 0.13,,
EKESTELRAEEIETRVTSGSMEAL [PPFIA4],5.53 ± 0.17,5.45 ± 0.27,,
PMMKAAMYSVEITVEKDKVTGETR [PALM],4.16 ± 0.33,4.29 ± 0.14,,
LRSFCAWQRGLNTPEDSDPDHFDT [ADAMTS4],4.12 ± 0.27,4.24 ± 0.2,,
ANHTHTFYGHSHHSHHGHPSHQSH [C10orf62],3.51 ± 0.12,3.46 ± 0.23,,
QNARLAELERKLREVMESAVGNSS [FBXO28],3.68 ± 0.23,3.52 ± 0.34,,
GCANNLLVHHRAAHSNEILIFSVQ [KLHDC2],2.49 ± 1,2.67 ± 0.58,,
PSGEMVKSTTSLTSSSTSGSSDKV [MLH1],5.47 ± 0.39,5.59 ± 0.17,,
QLSATGQKLYVRLFQRKLSWIKMT [FAN1],2.3 ± 0.6,2.04 ± 0.17,,
TRPTQHELRLYKQQVKKLEKALKK [CEP70],3.23 ± 0.25,3.07 ± 0.29,,
GSNPSSSNSSQDSLHKGAKRKGIK [PPFIA4],5.14 ± 0.69,5.53 ± 0.35,,
GLPGKVFACLSVLFVTVTAVNLSV [KCNG1],3.36 ± 0.17,3.053 ± 0.022,,
KEEVRAALEQREQDAVDQVKVIMD [TRIM29],5.23 ± 0.36,5.39 ± 0.13,,
TLEQHLNTLEGKKPGNNEGSGAPS [SNAP91],4.81 ± 0.18,5.14 ± 0.08,,
MAHSKTRTNDGKITYPPGVKEISD [PDS5B],4.59 ± 0.17,4.61 ± 0.21,,
RMLKDNKKNWRRVYKSLLLLAYLI [CLINT1],2.45 ± 0.38,2.63 ± 0.23,,
ELAALLIERGASLEEVNDEGYTPL [ANKRD17],2.34 ± 0.29,2.78 ± 0.53,,
RTILLSVISLLNEPNTFSPANVDA [CDC34],2.77 ± 0.41,2.66 ± 0.54,,
VPKNYVVVLSDGPALHPAHAPQIS [NCK2],2.42 ± 0.17,2.61 ± 0.31,,

Sequence,protein stability index [1],protein stability index [2],"protein stability index (treatment: DMSO, c terminus: native)","protein stability index (treatment: MLN4924 1 uM, 8 h, c terminus: native)"
ENAPIGTLLLRLNATDPDEGTNGQ [PCDHGC5],4.95 ± 0.15,4.92 ± 0.18,,
SSRYDDYSSSRDGYGGSRDSYSSS [RBMX],4.37 ± 0.25,4.52 ± 0.19,,
FVFFVLLNMFLAIINDTYSEVKEE [PKD2L1],3.36 ± 0.23,3.12 ± 0.26,,
DSSCSGQPIHLWQFLKELLLKPHS [SPDEF],2.47 ± 0.21,2.46 ± 0.16,,
LRRPRPVQRTQSVPVRRPARRRQS [RASAL3],4.99 ± 0.29,5.19 ± 0.35,,
SVFKKGRRRVPVRNLGKVVHYAKV [PLEKHN1],2.36 ± 0.17,2.37 ± 0.84,,
VELLLSHADCDRRSRIEALELLGA [FEM1B],2.7 ± 0.19,2.78 ± 0.21,,
NESWIKSHFSRLSEEKLALDNNAS [C10orf62],4.11 ± 0.14,4.29 ± 0.24,,
DFLETPELTSTMLVPASWWILNN [NECAB1],,,2.21 ± 0.35,2.18 ± 0.25
VNLLHIESRKSKRRNSEFEIFVDC [TPH1],2.26 ± 0.52,2.4 ± 0.35,,
IGESMYGDFEEAFDHLQNRLIATK [TENT5C],3.63 ± 0.12,3.59 ± 0.067,,
PSVADNLLASSDAALSASMASLLE [SERTAD1],4.51 ± 0.18,4.39 ± 0.15,,
WVGFDDVESFKTKVSYLKQKGLGG [CHIT1],2.36 ± 0.33,2.69 ± 0.36,,
HLSPLVVHRQLSHLYAEPQKSPWC [ESR2],2.51 ± 0.36,2.79 ± 0.36,,
IVKQQDPLVYKAIQQGINAVNQEA [ACSBG2],3.75 ± 0.11,3.82 ± 0.12,,
FCGAPPVTPIIVLSIINFFERLCL [PHTF1],2.87 ± 0.47,2.5 ± 0.46,,
EKALKKNVKLQELINHKKAEDTEK [CEP70],4.85 ± 0.34,5.07 ± 0.2,,
GTDQVCVLEWGAEGVAGKSGLEKE [FCHSD1],5.01 ± 0.25,5.07 ± 0.15,,
LCAPEVISLINTRMLFWACSTNKP [FAF2],3.04 ± 0.47,2.88 ± 0.41,,
VQELVLEDLQDGDVRMGGSFRGAF [NET1],3.38 ± 0.18,3.47 ± 0.12,,
IYAMKILRKSDMLEKEQVAHIRAE [STK38L],2.33 ± 0.26,2.48 ± 0.22,,
PSPASEQTVTVEEAAGGESALAPS [MAP2],5.45 ± 0.53,5.5 ± 0.15,,
YFTWDEVAQRSGCEERWLVIDRKV [FADS1],2.65 ± 0.17,2.82 ± 0.27,,

Sequence,protein stability index [1],protein stability index [2],"protein stability index (treatment: DMSO, c terminus: native)","protein stability index (treatment: MLN4924 1 uM, 8 h, c terminus: native)"
HRHTSHLGHAVLPSNARGPILSRS [SPRY1],3.69 ± 0.14,3.94 ± 0.13,,
CEEALCSNLSVENVADTLVLADLH [SPOPL],4.52 ± 0.086,4.48 ± 0.22,,
LGPLLSEPLVLYNQNLSNRPSFNR [MYOZ1],2.62 ± 0.13,2.95 ± 0.49,,
YSSSRDGYGGSRDSYSSSRSDLYS [RBMX],3.51 ± 0.14,3.79 ± 0.21,,
SGPARVIAIVSVMVILISIVIFCL [KCNA1],2.18 ± 0.14,2.22 ± 0.32,,
QEITSETEDLCEKPDDEVKETAHD [RIPK4],5.6 ± 0.17,5.69 ± 0.21,,
SLISGCPNIQEAVEGAMHIQECVP [CRYL1],3.87 ± 0.29,3.98 ± 0.18,,
EQGEPLWTLEDEIHSPAHPEIEKA [ZNF649],5.44 ± 0.44,5.57 ± 0.22,,
AALAAMNGRKIMGKEVKVNWATTP [TIA1],2.25 ± 0.32,2.3 ± 0.28,,
VTDEEIESLMKDGDKNNDGRIDFD [TNNC2],5.52 ± 0.14,5.46 ± 0.3,,
TPAGLPPSRAKPPTEGAGSPAKAS [FBF1],5.38 ± 0.32,5.4 ± 0.1,,
LGNVLFSPICLSTSLSLAQVGAKG [SERPINB5],2.48 ± 0.2,2.12 ± 0.23,,
SRLTALTLHQRTHTEERPFKCNYC [ZNF449],2.73 ± 0.23,3.03 ± 0.4,,
SFFFPPVNLPISFFRKLLDCCQVS [NLN],2.23 ± 0.77,2.25 ± 0.5,,
RGVPLLEWETEVEMDKLRASDIME [CLCN6],4.2 ± 0.043,4.3 ± 0.13,,
LPRHQDQPHHQPPNRAGAPGESLE [TRAF3IP2],5.51 ± 0.2,5.43 ± 0.095,,
YLDVDLTLTREQTERLSHQITSRV [RTN2],3.17 ± 0.18,3.23 ± 0.34,,
AVDFTQEEWGQLDPTQRILYRDVM [ZNF8],3.75 ± 0.18,3.88 ± 0.35,,
PFDQSGLGAEESLGLLDDYLEVAK [ATF4],4.28 ± 0.28,4.62 ± 0.24,,
CLSFQPECSMKLTPLVLEVFGNEI [VDR],2.27 ± 0.38,2.52 ± 0.19,,
MAGGKAGKDSGKAKAKAVSRSQRA [H2AZ2],4.73 ± 0.24,5.03 ± 0.25,,
LAAKERHCGELKRRLGLSTLGELK [TPD52L2],2.85 ± 0.32,3.02 ± 0.33,,
CSSKRSSIPLMGFEFEVRVCDSCH [WDFY2],2.24 ± 0.39,2.15 ± 0.34,,

Sequence,protein stability index [1],protein stability index [2],"protein stability index (treatment: DMSO, c terminus: native)","protein stability index (treatment: MLN4924 1 uM, 8 h, c terminus: native)"
TSAKVNWMPPPSRADSFKVSYQLA [TNXB],2.5 ± 0.32,2.69 ± 0.26,,
IKDLSVVHSDLSSIVILDNSPGAY [CTDNEP1],2.49 ± 0.23,2.48 ± 0.3,,
GAGAGSSLLDVAEPGGPGWLPESD [SMAD6],5.23 ± 0.19,5.01 ± 0.25,,
VRLMRQLLVINESIESIKWMIEEK [LURAP1L],2.75 ± 0.35,2.86 ± 0.45,,
GTEYTCKVYPVQEALAVLEPYARL [TRIB3],2.62 ± 0.23,2.48 ± 0.33,,
SSSSILRWLPEKRANPCLSSSNEH [ELOA2],3.4 ± 0.19,3.54 ± 0.25,,
QARKALFEKWEQETAAGKGKGEAR [SMTNL2],4.836 ± 0.03,4.84 ± 0.29,,
RAYRFVQGKDWGFKKFIRRDFLLD [SPOPL],2.48 ± 1.1,2.28 ± 0.29,,
VLVKDNGLGCKDLDLIFHVALPTE [TENT5C],2.58 ± 0.57,2.82 ± 0.73,,
YQRVLPLPIFTPAKMGATKEERED [TCAP],3.01 ± 0.69,3.62 ± 0.78,,
LLIPKEDGVITASEDRTIRVWLKR [WDFY1],2.42 ± 0.34,2.7 ± 0.51,,
TQYFAELLMTSGVVLCEGVKWLSF [CNOT7],3.25 ± 0.2,3.56 ± 0.19,,
QHYFYDYDCGEDFYRSTAPSEDIW [MYCL],2.63 ± 0.49,2.59 ± 0.33,,
TLLLQGHHDKVQSLCYLQLTRQLV [WDFY1],2.8 ± 0.43,2.76 ± 0.38,,
TKKKGVKRPARLHTKPSQAPAVEV [NOP53],4.36 ± 0.2,4.411 ± 0.021,,
TRHYRPPEVILELGWAQPCDVWSI [CLK3],2.69 ± 0.65,2.47 ± 0.52,,
MHTNYLSACSFTNSDMQILTASGD [GNB5],2.99 ± 0.22,3.27 ± 0.26,,
VDQKLELNIVPRTKVVYLASETFN [PI4K2A],2.38 ± 0.23,2.51 ± 0.25,,
ISRALLSDVVPEKERPLVIGHFNT [MFSD9],3.04 ± 0.45,2.99 ± 0.31,,
VQETNKQPPQTVNPIGHLPESLTK [ATF4],4.79 ± 0.24,4.86 ± 0.2,,
